EC50 data for one substance are collected here from publication PMC12499391.

What all share (assay): ELISA; dose-response of S protein binding to ACE2 and C-type lectins; which partner was coated and how binding was detected is not given for this experiment
Assay [1] deals with Recombinant human CLEC10A (human) (UniProt Q8IUN9).
Assay [2] deals with Recombinant human CLEC2 (human) (UniProt Q9P126).
For assay [3], the target named is Recombinant human CLEC5A (human) (UniProt Q9NY25).
Assay [4] deals with Recombinant human DC‐SIGN (human) (UniProt Q9NNX6).
Assay [5] concerns the target Recombinant human L‐SIGN (human) (UniProt Q9H2X3).
Sequence of UniProt Q9H2X3 (Q9H2X3 whole entry): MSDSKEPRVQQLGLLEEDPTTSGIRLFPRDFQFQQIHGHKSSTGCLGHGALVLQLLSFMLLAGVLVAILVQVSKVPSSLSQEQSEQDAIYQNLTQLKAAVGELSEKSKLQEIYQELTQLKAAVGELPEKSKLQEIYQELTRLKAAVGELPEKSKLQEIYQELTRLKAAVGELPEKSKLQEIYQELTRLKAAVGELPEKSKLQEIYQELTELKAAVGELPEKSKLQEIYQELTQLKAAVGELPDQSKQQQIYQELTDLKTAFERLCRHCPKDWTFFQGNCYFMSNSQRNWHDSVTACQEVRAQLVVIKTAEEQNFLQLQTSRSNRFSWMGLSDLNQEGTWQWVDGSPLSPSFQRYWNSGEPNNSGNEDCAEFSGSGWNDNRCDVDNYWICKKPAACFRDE

Sequence of UniProt Q9NY25 (Q9NY25 whole entry): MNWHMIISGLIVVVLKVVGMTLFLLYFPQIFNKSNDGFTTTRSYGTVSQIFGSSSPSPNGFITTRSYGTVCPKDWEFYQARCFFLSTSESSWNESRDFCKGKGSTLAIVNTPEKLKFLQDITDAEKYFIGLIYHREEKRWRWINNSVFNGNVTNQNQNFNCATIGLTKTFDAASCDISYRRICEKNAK
Sequence of UniProt Q9P126 (Q9P126 whole entry): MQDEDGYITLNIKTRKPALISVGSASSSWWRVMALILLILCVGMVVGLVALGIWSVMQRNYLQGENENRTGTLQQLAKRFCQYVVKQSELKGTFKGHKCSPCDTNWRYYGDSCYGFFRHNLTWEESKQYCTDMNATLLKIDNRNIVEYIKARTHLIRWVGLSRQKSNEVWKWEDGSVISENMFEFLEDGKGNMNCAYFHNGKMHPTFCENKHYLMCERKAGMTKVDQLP
Sequence of UniProt Q8IUN9 (Q8IUN9 whole entry): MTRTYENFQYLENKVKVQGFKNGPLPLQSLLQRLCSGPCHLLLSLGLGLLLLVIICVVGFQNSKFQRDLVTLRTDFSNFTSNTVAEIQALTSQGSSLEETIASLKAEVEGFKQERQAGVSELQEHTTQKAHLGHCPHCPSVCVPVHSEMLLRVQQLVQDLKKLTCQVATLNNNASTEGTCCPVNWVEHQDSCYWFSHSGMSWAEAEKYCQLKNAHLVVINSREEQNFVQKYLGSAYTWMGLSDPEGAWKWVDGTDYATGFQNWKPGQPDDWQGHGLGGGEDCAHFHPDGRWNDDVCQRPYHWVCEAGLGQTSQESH
Sequence of UniProt Q9NNX6 (Q9NNX6 whole entry): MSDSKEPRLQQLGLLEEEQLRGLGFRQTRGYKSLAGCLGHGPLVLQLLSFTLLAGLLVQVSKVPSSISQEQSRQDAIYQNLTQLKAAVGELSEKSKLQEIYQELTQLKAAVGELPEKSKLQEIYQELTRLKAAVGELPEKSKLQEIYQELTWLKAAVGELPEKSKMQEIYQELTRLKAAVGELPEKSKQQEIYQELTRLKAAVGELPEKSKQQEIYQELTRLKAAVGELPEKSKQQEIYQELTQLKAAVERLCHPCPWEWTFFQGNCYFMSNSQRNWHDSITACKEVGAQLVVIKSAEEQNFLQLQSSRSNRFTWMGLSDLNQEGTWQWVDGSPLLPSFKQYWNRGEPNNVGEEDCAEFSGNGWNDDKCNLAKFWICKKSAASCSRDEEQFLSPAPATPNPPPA

As for “SARS‐CoV‐2 spike (S) protein (from UniProt P0DTC2 14-1213) (natural protein)”, the EC50 is 9.75 nM in assay [1]; 7.69 nM in assay [2]; 6.41 nM in assay [3]; 4.59 nM in assay [4]; 5.15 nM in assay [5].
